Assay [1] deals with T1, Recombinant cyno-CD40 protein (Acro Biosystems) (cynomolgus monkey (Macaca fascicularis), UniProt G7PG38 21-193).
T1 construct: also called cynomolgus monkey-CD40 protein; recombinant cynomolgus monkey CD40 recombinant protein
Kind of assay: ELISA on coated recombinant cynomolgus monkey CD40. How it is done: Binding of humanized anti-CD40 IgG1-LALA monoclonal antibodies to cynomolgus monkey-CD40 protein was tested in a biochemical ELISA. Recombinant cyno-CD40 protein (Acro Biosystems) was incubated in a 384-well Nunc™ MaxiSorp™ plate at a concentration of 0.5 μg/ml in PBS for one hour at room temperature. After washing three times with wash buffer (PBS, 0.1% Tween), plates were blocked with PBS, 2% BSA, 0.05% Tween for one hour at room temperature. Plates were washed again three time with wash buffer and antibodies at concentrations ranging from 500 to 0.03 ng/ml in PBS, 0.5% BSA, 0.05% Tween were incubated for one hour at room temperature. After 3 washes in wash buffer, wells were incubated with 12.5 μl of a 1:3000 dilution of anti-human peroxidase-linked, species specific F(ab) 2 Fragment from goat (AbD Serotec) in ELISA buffer for one hour at room temperature. Wells were washed six times with wash buffer and 15 μl/well TMB substrate solution (Invitrogen) were added. After 10 minutes at room temperature 15 μl Stop solution (1M HCl) were added per well and absorbance at 450 and 620 nm wavelength was measured using a Tecan M1000 microplate reader. Fitting curves and EC50 calculation were obtained by using Excel (Microsoft) and XLfit (IDBS).

Assay [2] concerns the target soluble human CD40 monomeric protein (Acro Biosystems) (human, UniProt P25942 21-193). Kind of assay: SPR Biacore T200, antibody captured via anti-human Fc, soluble CD40 as analyte, 1:1 model. How it is done:
(§1) a. The biochemical affinities of the antibodies of the invention was determined by surface plasmon resonance measurements. Antibodies were reversibly immobilized to a CM5 sensor chip surface via an anti-human Fc antibody. The kinetics of the interaction of immobilized antibodies with soluble human or cynomolgus monkey CD40 monomeric protein (Acro Biosystems) were analysed on a Biacore T200 SPR instrument. Kinetic data were determined using a Langmuir 1:1 binding model.
(§2) Biochemical affinities were measured by surface plasmon resonance on a Biacore T200 SPR instrument. Kinetic data were determined using a Langmuir 1:1 binding model.
On the technique in general: In SPR one partner is held on a chip, and binding of the other changes the refractive index at the surface.

The target of the next assay is T2, cell-expressed CD40 (UniProt P25942 21-277, limits assumed).
T2 construct: whole, on cells; also called CD40 on HEK-Blue-CD40L cells; cell surface CD40
T2 sequence (P25942 21-277 limits assumed): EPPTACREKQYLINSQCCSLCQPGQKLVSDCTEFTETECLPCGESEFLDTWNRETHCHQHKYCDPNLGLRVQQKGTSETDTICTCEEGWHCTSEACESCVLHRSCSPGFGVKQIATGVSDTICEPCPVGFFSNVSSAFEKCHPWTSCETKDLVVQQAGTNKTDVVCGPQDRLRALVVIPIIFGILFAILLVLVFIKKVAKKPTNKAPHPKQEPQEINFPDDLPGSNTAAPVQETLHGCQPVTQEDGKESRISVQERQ
Put plainly: cell binding on HEK-Blue-CD40L cells, Alexa-Fluor-488 anti-human IgG, high content imaging. How it is done:
Antibodies were added to final concentrations ranging from 1.25 μg/ml to 0.01 ng/ml in 5 μl medium. After 24h cells were washed three times with 25 μl wash buffer (PBS, 0.05% Tween) before Alexa-Fluor-488-conjugated goat anti-human-IgG (Jackson Laboratories) was added at a concentration of 0.8 μg/ml in 20 μl medium. Four hours later, 5 μl Hoechst dye in medium was added to a final concentration of 51.1 µg/ml. Fluorescent cell binding signals were measured using a CellInsight automated high content imager (Thermo Fisher Scientific). Fitting curves and EC50 calculation were obtained by using Excel (Microsoft) and XLfit (IDBS).

Assay [3] concerns the target T3, soluble cynomolgus monkey CD40 monomeric protein (Acro Biosystems) (cynomolgus monkey, UniProt G7PG38 21-193).
T3 construct: May be the same reagent as m11; also called cynomolgus monkey CD40 protein
Put plainly: SPR (Biacore T200), antibody captured via anti-human Fc on CM5 chip, soluble cynomolgus CD40 as analyte, Langmuir 1:1 model. How it is done:
as §1, §2

The target in the next assay is T4, recombinant CD40 protein (UniProt P25942 21-193, limits assumed).
T4 construct: Construct not described; also called CD40 recombinant protein
T4 sequence (P25942 21-193 limits assumed): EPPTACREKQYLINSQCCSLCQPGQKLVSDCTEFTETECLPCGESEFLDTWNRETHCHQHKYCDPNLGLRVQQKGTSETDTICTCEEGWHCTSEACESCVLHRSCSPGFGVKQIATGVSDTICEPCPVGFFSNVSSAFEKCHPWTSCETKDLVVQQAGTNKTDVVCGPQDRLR
Kind of assay: CD40L competition ELISA: antibody (5 µg/ml) preincubated with recombinant CD40 (1.7 µg/ml), complex added to coated CD40L, detected with anti-human F(ab)2-peroxidase; a low signal means competition with CD40L. The protocol:
Competition of humanized anti-CD40 IgG1-LALA monoclonal antibodies with CD40L binding to CD40 was tested using an ELISA assay. CD40L was coated to the surface of a 384-well Nunc™ MaxiSorp™ plate in a volume of 25 μl PBS and at a concentration of 1 μg/ml for one hour at room temperature. Antibodies were pre-incubated at a concentration of 5 μg/ml with recombinant CD40 protein at a concentration of 1.7 μg/ml in a total volume of 40 μl for 1.5 hours at room temperature in ELISA buffer (PBS, 0.5% BSA, 0.05% Tween). The Nunc™ MaxiSorp™ plate was washed three times with wash buffer (PBS, 0.1% Tween) and blocked for one hour at room temperature with PBS, 2% BSA, 0.05% Tween. After three washes in wash buffer, 25 μl of the antibody-CD40 complex were added to the Nunc™ MaxiSorp™ plate wells and incubated for one hour at room temperature. After 3 washes in wash buffer, wells were incubated with 25 μl of a 1:2000 dilution of anti-human peroxidase-linked, species specific F(ab) 2 Fragment from goat (AbD Serotec) in ELISA buffer for one hour at room temperature. Wells were washed six times with wash buffer and 30 μl/well TMB substrate solution (Invitrogen) were added. After 10 minutes at room temperature, 30 μl Stop solution (1M HCl) was added per well and absorbance at 450 and 620 nm wavelength was measured using a Tecan M1000 microplate reader.

Chain of soluble human CD40 monomeric protein (Acro Biosystems) (P25942 21-193 limits assumed): as above

B1: MAB-16-0262 (antibody, V domains shown)
VH: EVQLEESGGGLVQPGGSLRLSCAASGFDFSTNAMCWVRQAPGKGLEWVACIAAGSSIITYYASWAKGRFTISKDTSKTTLYLQMNSLRAEDTAVYFCARGLSRFALWGQGTLVTVSS
VL: DIVMTQSPSSLSASVGDRVTITCQASQSISSYLSWYQQKPGQAPKLLIYLTSTLASGVPSRFSGSGSGTDFTLTISSLQPEDFATYYCQGYYSSSSYVSNGFGQGTKVVIK
notes: Humanized IgG1-LALA (L234A, L235A in the human IgG1 Fc, EU numbering)
With B1, the results for the EC50 (in assay [1]; in the assay with cell-expressed CD40) were 11.9 ng/mL and 6.3 ng/mL, respectively. The Kd (in general, the equilibrium constant for the complex coming apart) in assay [2] was found to be 15.7 nM; in assay [3] it was 10.3 nM. Moreover, the “OD at 450 nm” value in the assay with recombinant CD40 protein was found to be 0.11 OD.

B2: MAB-16-0451 (antibody, V domains shown)
VH: EVQLEESGGGLVQPGGSLRLSCAASGFDFSSNTMCWVRQAPGKGLEWVACIYAGSSGSTYYASWAKGRFTISKDISKTTLYLQMNSLRAEDTATYFCARGLSRFSLWGQGTLVTVSS
VL: DIVMTQSPSSLSASVGDRVTITCQASQSISNYLAWYQQKPGQAPKLLIYDASKLASGVPSRFSGSGSGTDFTLTISSLQPEDFATYYCQGGDYYGSSYVVAFGGGTKVVIK
notes: as for B1
Regarding B2, the EC50 (commonly the concentration needed to bring the measured effect to its halfway point) in assay [1] came to 10.4 ng/mL; in the assay with cell-expressed CD40, 8.9 ng/mL. For the same molecule, the Kd in assay [2] is 1.2 nM; in assay [3], 0.8 nM. Further, the “OD at 450 nm” value in the assay with recombinant CD40 protein came to 0.13 OD.

B3: MAB-16-0489 (antibody, V domains shown)
VH: EVQLEESGGGLVQPGASLRLSCAASGIDFSRYFYVCWVRQAPGKGLEWVGCFANHDDSIYYAGWMNGRFTISKDTSKTTLYLQMNSLRAEDTATYFCARGVDYTVGYGGAAFNLWGQGTLVTVSS
VL: DIVMTQSPSSLSASVGDRVTITCQASQSIGSYLSWYQQKPGQAPKLLIYRATTLASGVPSRFSGSGSGTDFTLTISSLQPEDFATYYCQSYYRDSSSSAFGQGTKVVIK
notes: humanized anti-CD40 IgG1-LALA antibody of the invention
As for B3, in the assay with cell-expressed CD40, a half-maximal effect (EC50) was put at 3.2 ng/mL. In addition, the “OD at 450 nm” value with recombinant CD40 protein amounted to 0.01 OD.

B4: MAB-16-0400 (antibody, V domains shown)
VH: EVQLEESGGGLVQPGGSLRLSCAASGIDFSRYFYMCWVRQAPGKGLEWVACIGPGVSGDTYYASWAKGRFTISGDTSKTTLYLQMNSLRAEDTATYFCARGVDYTYGDAGAAFNLWGQGTLVTVSS
VL: DIVMTQSPSSLSASVGDRVTITCQASQSISSYLAWYQQKPGQAPKLLIYRASILASGVPSRFSGSGSGTDFTLTISSLQPEDFATYYCQTYYSSRTYSYGSPNAFGQGTKVVIK
notes: as for B3
Molecule B4 came in with an EC50 with cell-expressed CD40 of 5.8 ng/mL. Besides, the “OD at 450 nm” value with recombinant CD40 protein was 0.08 OD.

B5: CP-870,893 (antibody, V domains shown)
VH: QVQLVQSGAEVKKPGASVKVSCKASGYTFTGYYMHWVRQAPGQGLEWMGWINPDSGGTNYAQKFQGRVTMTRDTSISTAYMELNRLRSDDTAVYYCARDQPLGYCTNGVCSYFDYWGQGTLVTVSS
VL: DIQMTQSPSSVSASVGDRVTITCRASQGIYSWLAWYQQKPGKAPNLLIYTASTLQSGVPSRFSGSGSGTDFTLTISSLQPEDFATYYCQQANIFPLTFGGGTKVEIKR
For B5, the EC50 in assay [1] came out at 8 ng/mL. The molecule also came in with a Kd in assay [2] of 8.9 nM.

B6: MAB-16-0484 (antibody, V domains shown)
VH: EVQLEESGGGLVQPGGSLRLSCAASGIDFSRYYYICWVRQAPGKGPEWVACFANGDGSTYYASWAKGRFTISKDTSKTTLYLQMNSLRAEDTATYFCARGADYSGGAAAFNLWGQGTLVTVSS
VL: DIQMTQSPSSLSASVGDRVTITCQASQSISSRLAWYQQKPGQAPKLLIYRASTLASGVPSRFSGSGSGTDFTLTISSLQPEDFATYYCQDYYGSSTEYNAFGQGTKVVIK
notes: as for B3
Take B6: the concentration for a half-maximal effect (EC50) in assay [1] was 31.8 ng/mL; in the assay with cell-expressed CD40, 21.9 ng/mL. For the same molecule, in the assay with recombinant CD40 protein, the “OD at 450 nm” value came out at 0.07 OD.

B7: MAB-16-0267 (antibody, V domains shown)
VH: EVQLEESGGDLVQPGASLRLSCAASGFDFNSNAMSWVRQAPGKGLEWVASIYAGGSGSTYYASWAKGRFTISKDTSKTTLYLQMNSLRAEDTATYFCARGITRLPLWGQGTLVTVSS
VL: DIQMTQSPSSLSASVGDRVTITCQASQSISSYLAWYQQKPGQAPKLLIYDASKLASGVPSRFSGSGSGTDFTLTISSLQPEDFATYYCQGTYYGSTTISAFGQGTKVVIK
notes: as for B3
On to B7, for which the EC50 in assay [1] was found to be 7 ng/mL; with cell-expressed CD40 it was 3.4 ng/mL. Further, the “OD at 450 nm” value with recombinant CD40 protein was found to be 0.1 OD.

B8: MAB-16-0406 (antibody, V domains shown)
VH: EVQLEESGGGLVQPGGSLRLSCAASGIDFSRYYYMCWVRQAPGKGPEWVACYSNGDGSTYYASWAKGRFTISKDTSKTTLYLQMNSLRAEDTATYFCARGADYSAGAAAFNLWGQGTLVTVSS
VL: DIQMTQSPSSLSASVGDRVTITCQASESIGNALVWYQQKPGQAPKLLIYRASILASGVPSRFSGSGSGTDFTLTISSLQPEDFATYYCQDYYGSSTEYNTFGQGTKVVIK
notes: as for B3
Regarding B8, the results for the EC50 (in assay [1]; with cell-expressed CD40) were 11.1 ng/mL and 6.6 ng/mL, respectively. Moreover, the “OD at 450 nm” value with recombinant CD40 protein was found to be 0.07 OD.

B9: MAB-16-0346 (antibody, V domains shown)
VH: EVQLEESGGGLVQPGGSLRLSCAASGFDFSTNAVSWVRQAPGKGLEWVGSISAGSSGSTYYASWAKGRFTISKDTSKTTLYLQMNSLRAEDTATYFCARGYTYLTLWGQGTLVTVSS
VL: DIVMTQSPSSLSASVGDRVTITCQASHSISSTYLSWYQQKPGQAPKLLIYRASTLASGVPSRFSGSGSGTDFTLTISSLQPEDFATYYCQYTDYGSSYVSTFGQGTKVVIK
notes: as for B3
Consider B9, for which the EC50 was determined as 8.2 ng/mL in assay [1] and 49.5 ng/mL with cell-expressed CD40. Moreover, in the assay with recombinant CD40 protein, the “OD at 450 nm” value was found to be 0.09 OD.

B10: MAB-16-0464 (antibody, V domains shown)
VH: EVQLEESGGGLVQPGGSLRLSCAASGFDFSSNAMSWVRQAPGKGLEWVGTIYAGSNGNTDYASWAKGRFTISKDTSKTTLYLQMNSLRAEDTATYFCARGASYFTLWGQGTLVTVSS
VL: DIVMTQSPSSLSASVGDRVTITCQASESVVSNNRLAWYQQKPGQAPKLLIYLASTLPSGVPSRFSGSGSGTDFTLTISSLQPEDFATYYCAGYKSSSTDGTAFGQGTKVVIK
notes: as for B1
For B10, the figures for the EC50 (in assay [1]; in the assay with cell-expressed CD40) were 8 ng/mL and 3 ng/mL, respectively. The Kd in assay [2] was 2.6 nM; in assay [3], 2.2 nM. Further, the “OD at 450 nm” value in the assay with recombinant CD40 protein was found to be 0.09 OD.

The values are drawn from US20240010741A1 (MAB DISCOVERY, published 2024).
